Source: patent US20130122577, “KIT INCLUDING SEQUENCE SPECIFIC BINDING PROTEIN AND METHOD AND DEVICE FOR DETERMINING NUCLEOTIDE SEQUENCE OF TARGET NUCLEIC ACID” (Samsung Electronics Co., Ltd., published 2013)

Columns and labels:
[1] = target: ZF02 (two-finger zinc finger protein targeting AACTGA, YFP fusion) (Artificial Sequence); assay: EMSA; 20 mM bis-Tris propane pH 7.0, 100 mM NaCl, 5 mM MgCl2, 20 mM ZnSO4 (so in the source), room temperature 1 h; complementary strand SEQ 16 appears printed 3'-5'; conditions: tags: YFP fused via (Gly2Ser)2 linker; Ni-NTA purified from E. coli BL21(DE3), pET21b-YFP-ZF (2)
Procedure: (§1) In order to identify whether the sequence specific binding protein prepared in Example 2 specifically binds to the target nucleic acid, a gel mobility shift assay was performed.
(§2) First, a 20-mer oligonucleotide including the nucleotide sequences AATTAG or AACTGA, which the sequence specific binding protein may specifically recognize, was synthesized (SEQ ID NO. 13 to SEQ ID NO. 16). Subsequently, each of the oligonucleotides of SEQ ID NOS. 13 and 14, SEQ ID NOS. 15 and 16 was annealed to prepare a target nucleic acid. The prepared target nucleic acid and the protein prepared in Example 2 was added to a buffer solution (including 10 ml of 20 mM bis-Tris propane (pH 7.0); 100 mM NaCl; 5 mM MgCl₂; 20 mM ZnSO₄; 10% glycerol; 0.1% Nonidet P-40; 5 mM DTT; and 0.10 mg/ml BSA), followed by reaction at room temperature for about 1 hour. The reactant was subjected to non-denaturing PAGE and as a result as shown in FIG. 6 and FIG. 7, it was identified that a combined product of a target nucleic acid 1 (a polynucleotide fragment including AATTAG) or 2 (a polynucleotide fragment including AACTGA) with ZF01 or ZF02 respectively recognizing the nucleic acid 1 or 2 was shorter in mobility distance on the gel than a negative control group (target nucleic acid).

[2] = target: ZF01 (two-finger zinc finger protein targeting AATTAG, YFP fusion) (Artificial Sequence); assay: EMSA; 20 mM bis-Tris propane pH 7.0, 100 mM NaCl, 5 mM MgCl2, 20 mM ZnSO4 (so in the source), room temperature 1 h; complementary strand SEQ 14 appears printed 3'-5'; conditions: tags: YFP fused via (Gly2Ser)2 linker; Ni-NTA purified from E. coli BL21(DE3), pET21b-YFP-ZF (1)
Procedure: as §1, §2

Chain of ZF01 (two-finger zinc finger protein targeting AATTAG, YFP fusion) (Artificial Sequence) (chain, as listed by the source): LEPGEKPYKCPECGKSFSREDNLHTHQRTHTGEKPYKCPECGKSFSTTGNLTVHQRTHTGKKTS
Chain of ZF02 (two-finger zinc finger protein targeting AACTGA, YFP fusion) (Artificial Sequence) (chain, as listed by the source): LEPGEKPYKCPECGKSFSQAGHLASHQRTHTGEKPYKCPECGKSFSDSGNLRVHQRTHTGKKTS

Binder	binding result [1]	binding result [2]
target nucleic acid 2 (AACTGA 20-mer duplex) (dsDNA) DNA 1: TTTTTTTAACTGATTTTTTT DNA 2: AAAAAAATCAGTTAAAAAAA	binds	–
target nucleic acid 1 (AATTAG 20-mer duplex) (dsDNA) DNA 1: TTTTTTTAATTAGTTTTTTT DNA 2: AAAAAAACTAATTAAAAAAA	–	binds
